Read-outs that look alike come from different tables or passages of the source.
What was measured:
Assay in all cases: dynamic light scattering
[1] = target: full-length BLM protein (human) (UniProt P54132)
[2] = target: full-length BLM protein (human) (UniProt P54132); remark: listed apart in the source
[3] = target: full-length BLM protein (human) (UniProt P54132); remark: listed apart in the source

## full-length BLM protein, P54132 1-1417 (enzyme; other documents disagree on this pair)
[1]
  % mass in the high-order oligomer peak (radius 9.9 nm): 96.1%
  % mass in the high-order oligomer peak (radius 10.1 nm): 97.2%
  % mass in the high-order oligomer peak (radius 12.6 nm): 62.2%
  % mass in the high-order oligomer peak (radius 12.7 nm): 57.8%
  % mass in the high-order oligomer peak (radius 20.3 nm): 90.5%
  % mass in the low-order oligomer peak (radius 8.2 nm): 37.8%
  stoichiometry N: 6
[2]
  stoichiometry N: 6
[3]
  stoichiometry N: 3
